Test results from the supplement of paper PMC9233669.
This sample holds only a part of the variants without activity.

How the values were obtained:
biotinyl-Trp-oxazolone = experiment: self-aminoacylation, catalytic enhancement (BWO) (fold over background); higher = more active; k-Seq, kA / k0A0; sequences stand for … in GGGAAUGGAUCCACAUCUACGAAUUC…UUCACUGCAGACUUGACGAAGCUG
Summary of the method: (§1)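 The uncatalyzed rate is the low-activity peak of a bimodal Gaussian fit, and catalytic enhancement is median kA divided by it. The kA values came from pseudo-first-order fits, with 1000 bootstraps, of per-sequence fraction reacted measured by streptavidin capture, triplicate qPCR and Illumina sequencing. Mutagenized RNA pools with a 21-nt variable region (0.43 μM) were reacted with each biotinyl-aminoacyl-oxazolone at 2–1250 μM in 50 μL HEPES/NaCl/KCl/MgCl2/CaCl2 buffer with 5% acetonitrile, pH 6.9–7.0, for 90 minutes at room temperature.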

biotinyl-Leu-oxazolone = experiment: self-aminoacylation, catalytic enhancement (BLO) (fold over background); higher = more active; k-Seq, kA / k0A0; sequences stand for … in GGGAAUGGAUCCACAUCUACGAAUUC…UUCACUGCAGACUUGACGAAGCUG
Summary of the method: as §1

biotinyl-Ile-oxazolone = experiment: self-aminoacylation, catalytic enhancement (BIO) (fold over background); higher = more active; k-Seq, kA / k0A0; sequences stand for … in GGGAAUGGAUCCACAUCUACGAAUUC…UUCACUGCAGACUUGACGAAGCUG
Summary of the method: as §1

biotinyl-Met-oxazolone = experiment: self-aminoacylation, catalytic enhancement (BMO) (fold over background); higher = more active; k-Seq, kA / k0A0; sequences stand for … in GGGAAUGGAUCCACAUCUACGAAUUC…UUCACUGCAGACUUGACGAAGCUG
Summary of the method: as §1

biotinyl-Phe-oxazolone = experiment: self-aminoacylation, catalytic enhancement (BFO) (fold over background); higher = more active; k-Seq, kA / k0A0; sequences stand for … in GGGAAUGGAUCCACAUCUACGAAUUC…UUCACUGCAGACUUGACGAAGCUG
Summary of the method: as §1

biotinyl-Val-oxazolone = experiment: self-aminoacylation, catalytic enhancement (BVO) (fold over background); higher = more active; k-Seq, kA / k0A0; sequences stand for … in GGGAAUGGAUCCACAUCUACGAAUUC…UUCACUGCAGACUUGACGAAGCUG
Summary of the method: as §1

Sequence	self-aminoacylation (biotinyl-Trp-oxazolone)	self-aminoacylation (biotinyl-Leu-oxazolone)	self-aminoacylation (biotinyl-Ile-oxazolone)	self-aminoacylation (biotinyl-Met-oxazolone)	self-aminoacylation (biotinyl-Phe-oxazolone)	self-aminoacylation (biotinyl-Val-oxazolone)
AUUCUCCAAGGUCAUCGGGUG [Fam2.2 aminoacylation ribozyme variant]	10.7	15.6	6.8	11.8	102	7.99
AUUCUCCUAGGUAAUCGGGUG [Fam2.2 aminoacylation ribozyme variant]	4.29	6.03	2.55	4.1	33.1	2.45
AUUCUCCUAGGUCACCGGGUG [Fam2.2 aminoacylation ribozyme variant]	7.7	10.2	5.47	7.25	39.8	5.85
AUUCUCCUAGGUCAUCAGGUG [Fam2.2 aminoacylation ribozyme variant]	2.38	2.71	2.12	2.62	6.58	2.3
AUUCUCCUAGGUCAUCGCGUG [Fam2.2 aminoacylation ribozyme variant]	20.6	27.3	11.4	20.9	170	12.2
AUUCUCCUAGGUCAUCGGAUG [Fam2.2 aminoacylation ribozyme variant]	0.795	0.907	1.03	0.975	0.611	1.1
AUUCUCCUAGGUCCUCGGGUG [Fam2.2 aminoacylation ribozyme variant]	7.62	10.5	4.72	6.44	54.1	4.54
AUUCUCCUAGGUCGUCGGGUG [Fam2.2 aminoacylation ribozyme variant]	2.28	2.85	2.55	2.72	12.2	2.38
AUUGACAUAGGUCAUCGGGUG [Fam2.2 aminoacylation ribozyme variant]	8.04	8.84	5.14	7.3	48.4	4.42
AUUGACCUAGGUCAACGGGUG [Fam2.2 aminoacylation ribozyme variant]	2.72	2.43	2.46	2.6	8.47	2.31
AUUGACCUAGGUCAUCGGGCG [Fam2.2 aminoacylation ribozyme variant]	4.79	6	3.78	5.01	15	4.14
AUUGACCUAGGUCAUCGGUUG [Fam2.2 aminoacylation ribozyme variant]	1.65	1.41	1.34	1.08	3.99	1.29
AUUGACCUAGGUCAUGGGGUG [Fam2.2 aminoacylation ribozyme variant]	3.74	3.32	3.08	2.92	17	2.9
